Key:
Experiment in all cases: live-cell binding assay
[1] = target: SARS-CoV-2 NTD-mFc (SARS-CoV-2 Wuhan-Hu-1 (NC_045512), UniProt P0DTC2)
[2] = target: ZC45 NTD-mFc (Bat SARS-like coronavirus ZC45 …, UniProt A0A2R3SUW7)
[3] = target: SARS-CoV-1 NTD-mFc (SARS-CoV-1 (NC_004718, Tor2), UniProt P59594)
[4] = target: RaTG13 NTD-mFc (Bat coronavirus RaTG13, UniProt A0ABF7PLN6)

B1: S2L20-CVR (scFv, V domains shown)
VH: EVQLVESGGGVVQPGGSLRLSCAASGFTFNSYGMHWVRQAPGKGLEWVAFIRYDGGNKYYADSVKGRFTISRDNSKNTLYLQMKSLRAEDTAVYYCANLKDSRYSGSYYDYWGQGTLVTVS
VL: not shown
Question: Does B1 bind [1]?
Answer: Result: binds

Question: Does B1 bind [2]?
Answer: Result: no binding

Question: Does B1 bind [3]?
Answer: Result: no binding

Question: Does B1 bind [4]?
Answer: Result: binds

Source: doi:10.1101/2024.03.03.583237 (bioRxiv, 2024)
